Test results published in the RNAGym collection of RNA variant scans (doi:10.1093/nar/gkz1192).

B1: CPEB3 Ribozyme (parent)
chain: UAACAGGGGGCCACAGCAGAAGCGUUCACGUCGCAGCCCCUGUCAGAUUCUGGUGAAUCUGCGAAUUCUGCUGUAUAUCUC

Variants of: B1
Assay: self-cleavage, relative activity (ratio to wild type); higher = more cleavage; in vitro, sequencing
Procedure, shortened: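 Relative activity was defined as the cleaved/total read fraction for a variant divided by the same fraction for the unmutated ribozyme. CPEB3 self-cleaving ribozyme libraries were made by rounds of error-prone PCR, barcoded, and transcribed in vitro with T7 RNA polymerase for 5 hours at 37°C, and cleavage ran through transcription plus a 15 min DNase I step before EDTA. Illumina sequencing of template-switched reverse transcripts gave the reads, and DNA sequencing mapped the barcodes. Averages come from three batches, using variants with at least 5 reads.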

Variant	self-cleavage
UAACAUGGGGCCACUGCAGAAGCGUUCACGUCGCAGCCCCUGUCAGAUUCUGGUGAAUCUGCGAAUUCUGCUGUAUAUCUC [G6U A15U]	0.41
UAACAUGGGGCCACCGCAGAAGCGUUCACGUCGCAGCCCCUGUCAGAUUCUGGUGAAUCUGCGAAUUCUGCUGUAUAUCUC [G6U A15C]	0.19
UAACACGGGGCCACAGCAGAAGCGUUCACGACGCAGCCCCUGUCAGAUUCUGGUGAAUCUGCGAAUUCUGCUGUAUAUCUC [G6C U31A]	0.16
UAACACGGGGCCACAGCAGAAGCGUUCACGCCGCAGCCCCUGUCAGAUUCUGGUGAAUCUGCGAAUUCUGCUGUAUAUCUC [G6C U31C]	0.45
UAACACGGGGCCACAGCUGAAGCGUUCACGUCGCAGCCCCUGUCAGAUUCUGGUGAAUCUGCGAAUUCUGCUGUAUAUCUC [G6C A18U]	0.07
UAACACGGGGCCACAGCAGAAGCGUUCACGUCGCAGCCCCUGUCAGAUUCUGGUGAAUCUGCGAAUUCUGAUGUAUAUCUC [G6C C71A]	0.21
UAACACGGGGCCACAGCAGAAGCGUUCACGUCGCAGCCCCUGUCAGAUUCUGGUGAAUCUGCGAAUUCUGCUGUAUACCUC [G6C U78C]	0.48
UAACAAGGGGCCACAGCAGAAGCGUUCACGUCGCAGCCCCUGUCAGAUUCCGGUGAAUCUGCGAAUUCUGCUGUAUAUCUC [G6A U51C]	0.49
UAACAAGGGGCCACAGCAGAAGCGUUCACGUCGCAGCCCCUGUCAGAUUCAGGUGAAUCUGCGAAUUCUGCUGUAUAUCUC [G6A U51A]	0.37
UAACAAGGGGCCACAGCAGAAGCGUUCACGUCGCAGCCCCUGUCAGAUUCUGGAGAAUCUGCGAAUUCUGCUGUAUAUCUC [G6A U54A]	0.27
UAACAAGGGGCCACAGCAGAAGCGUUCACGUCGCAGCCCCUGUCAGAUUCUGGGGAAUCUGCGAAUUCUGCUGUAUAUCUC [G6A U54G]	0.19
UAACAAGGGGCCACAGCAGAAGCGUUCACGUCGCAGCCCCUGUCAGAUUCUGGCGAAUCUGCGAAUUCUGCUGUAUAUCUC [G6A U54C]	0.52
UAACACGGGGCCACAGCAGAAGCGUUCACGUCGCAGCCCCUGUCAGAUUCUGGUGAAUCUGCGAAUUCUGCUGCAUAUCUC [G6C U74C]	0.67
UAACACGGGGCCACAGCAGAAGCGUUCACGUCGCAGCCCCUGUCAGAUUCUGGCGAAUCUGCGAAUUCUGCUGUAUAUCUC [G6C U54C]	0.52
UAACAUGGGGCCACAGCAGAAGCGUUCACGUCGCAGCCCCUGUCAGAUUCUGGUGAAUCUGCGAAUUCUGCUGUAUAUCUC [G6U]	0.35
UAACACGGGGCCACAGCAGAAGCGUUCACGUCGCAGCCCCUGUCAGAUUCUGGUGAAUCUGCGAAUUCUGCUGUAUAUCUC [G6C]	0.36
UAACAAGGGGCCACAGCAGAAGCGUUCACGUCGCAGCCCCUGUCAGAUUCUGGUGAAUCUGCGAAUUCCGCUGUAUAUCUC [G6A U69C]	0.15
UAACAAGGGGCCACAGCAGAAGCGUUCACGUCGCAGCCCCUGUCAGAUUCUGGUGAAUCUGCGAAUUCGGCUGUAUAUCUC [G6A U69G]	0.27
UAACAAGGGGCCACAGCAGAAGCGUUCACGUCGCAGCCCCUGUCAGAUUCUGGUGAAUCUGCGAAUUCAGCUGUAUAUCUC [G6A U69A]	0.32
UAACACGGGGCCACAGCAGAAGCGUUCACGUCGCAGCCCCUGUCAGACUCUGGUGAAUCUGCGAAUUCUGCUGUAUAUCUC [G6C U48C]	0.47
UAACAAGGGGCCACAGCAGAAGCGUUCACGUCGCAGCCCCUGUCAGAUUCUGGUGAAUCUGCGAAUUCUGCUGUAGAUCUC [G6A U76G]	0.14
UAACAAGGGGCCACAGCAGAAGCGUUCACGUCGCAGCCCCUGUCAGAUUCUGGUGAAUCUGCGAAUUCUGCUGUACAUCUC [G6A U76C]	0.27
UAACACGGGGCCACAGCAGAAGCGUUCACGUCGCAGCCCCUGUCAGAUUCUGGUGAAUCUGUGAAUUCUGCUGUAUAUCUC [G6C C62U]	0.2

Variant	self-cleavage
UAACACGGGGCCACAGCAUAAGCGUUCACGUCGCAGCCCCUGUCAGAUUCUGGUGAAUCUGCGAAUUCUGCUGUAUAUCUC [G6C G19U]	0.2
UAACACGGGGCCACAGCAAAAGCGUUCACGUCGCAGCCCCUGUCAGAUUCUGGUGAAUCUGCGAAUUCUGCUGUAUAUCUC [G6C G19A]	0.48
UAACACGGGGCCACAGCAGAAGCGUUUACGUCGCAGCCCCUGUCAGAUUCUGGUGAAUCUGCGAAUUCUGCUGUAUAUCUC [G6C C27U]	0.33
UAACACGGGGCCACAGCAGAAGCGUUCACGUCGCAGCCCCUGUCAGAUUCAGGUGAAUCUGCGAAUUCUGCUGUAUAUCUC [G6C U51A]	0.38
UAACAAGGGGCCACAGCAGAAGCGUUCACGUCGCAGCCCCUGUCAGAUUCUGGUGAAUCUGCGAAUUCUGCGGUAUAUCUC [G6A U72G]	0.27
UAACAAGGGGCCACAGCAGAAGCGUUCACGUCGCAGCCCCUGUCAGAUUCUGGUGAAUCUGCGAAUUCUGCAGUAUAUCUC [G6A U72A]	0.2
UAACAAGGGGCCACAGCAGAAGCGUUCACGUCGCAGCCCCUGUCAGAUUCUGGUGAAUCUGCGAAUUCUGCCGUAUAUCUC [G6A U72C]	0.4
UAACACGGGGCCACAGCAGAAGCGAUCACGUCGCAGCCCCUGUCAGAUUCUGGUGAAUCUGCGAAUUCUGCUGUAUAUCUC [G6C U25A]	0.5
UAACAAGGGGCCACAGCAGAAGCGUUCACGUCGCAGCCCCUGUCAGAUUCUGGUGAAUCUGCGAAUUCUGCUGCAUAUCUC [G6A U74C]	0.54
UAACACGGGGCCACAGCAGAAGCGUUCACGUCGCAGCCCCUAUCAGAUUCUGGUGAAUCUGCGAAUUCUGCUGUAUAUCUC [G6C G42A]	0.31
UAACACGGGGCCACAGCAGAAGCGUUCACGUCGCAGCCCCUGUCAGAUUCUGGUGAGUCUGCGAAUUCUGCUGUAUAUCUC [G6C A57G]	0.5
UAACACGGGGCCACAGCAGGAGCGUUCACGUCGCAGCCCCUGUCAGAUUCUGGUGAAUCUGCGAAUUCUGCUGUAUAUCUC [G6C A20G]	0.44
UAACAAGGGGCCACAGCAGAAGCGUUCACGUCGCAGCCCCUGUCAGACUCUGGUGAAUCUGCGAAUUCUGCUGUAUAUCUC [G6A U48C]	0.18
UAACACGGGGCCACAGCAGAAGCGUUCACGUCGCAGCCCCUGUCAGAUUCUGAUGAAUCUGCGAAUUCUGCUGUAUAUCUC [G6C G53A]	0.59
UAACACGGGGCCACAGCAGAAGCGUUCACGUCGCAGCACCUGUCAGAUUCUGGUGAAUCUGCGAAUUCUGCUGUAUAUCUC [G6C C38A]	0.43
UAACACGGGGCCACAGCAGAAGCGUUCACGUCGCAGCCCCUGUCAGAUUCUGGUGAAUCUGCGAAUUCCGCUGUAUAUCUC [G6C U69C]	0.21
UAACAUGGGGCCUCAGCAGAAGCGUUCACGUCGCAGCCCCUGUCAGAUUCUGGUGAAUCUGCGAAUUCUGCUGUAUAUCUC [G6U A13U]	0.18
UAACACGGGGCCACAGCAGAAGCGUUCACGUCGCAGCCCCUGUCAGAUUCUGGUGAAUCUGCGAAUCCUGCUGUAUAUCUC [G6C U67C]	0.3
UAACACGGGGCCACAGCAGAAGCGUUCACGUCGCUGCCCCUGUCAGAUUCUGGUGAAUCUGCGAAUUCUGCUGUAUAUCUC [G6C A35U]	0.3
UAACACGGGGCCACAGCAGAAGCGUUCACGUCGCAGCCCCCGUCAGAUUCUGGUGAAUCUGCGAAUUCUGCUGUAUAUCUC [G6C U41C]	0.49
UAACAAGGGGCCACAGCAGAAGCGUUCACGUCGCAGCCCCUGACAGAUUCUGGUGAAUCUGCGAAUUCUGCUGUAUAUCUC [G6A U43A]	0.49
UAACAAGGGGCCACAGCAGAAGCGUUCACGUCGCAGCCCCUGCCAGAUUCUGGUGAAUCUGCGAAUUCUGCUGUAUAUCUC [G6A U43C]	0.19
UAACACGGGGCCACAGCAGAAGCGUUCACGUCGCAGCCCCUGUCAGAUUCUGGUGAAUCUGCGAGUUCUGCUGUAUAUCUC [G6C A65G]	0.46

Variant	self-cleavage
UAACAAGGGGCCACAGCAGAAGCGUUCACGUCGCAGCCCCUGUCAGAUUCUGGUGAAACUGCGAAUUCUGCUGUAUAUCUC [G6A U58A]	0.27
UAACAAGGGGCCACAGCAGAAGCGUUCACGUCGCAGCCCCUGUCAGAUUCUGGUGAAGCUGCGAAUUCUGCUGUAUAUCUC [G6A U58G]	0.29
UAACAAGGGGCCACAGCAGAAGCGUUCACGUCGCAGCCCCUGUCAGAUUCUGGUGAACCUGCGAAUUCUGCUGUAUAUCUC [G6A U58C]	0.14
UAACAAGGGGCCACAGCAGAAGCGUUCACGUCGCAGCCCCUGUCAGAUUCUGGUGAAUCCGCGAAUUCUGCUGUAUAUCUC [G6A U60C]	0.27
UAACAAGGGGCCACAGCAGAAGCGUUCACGUCGCAGCCCCUGUCAGAUUCUGGUGAAUCAGCGAAUUCUGCUGUAUAUCUC [G6A U60A]	0.33
UAACAAGGGGCCACAGCAGAAGCGUUCACGUCGCAGCCCCCGUCAGAUUCUGGUGAAUCUGCGAAUUCUGCUGUAUAUCUC [G6A U41C]	0.31
UAACAAGGGGCCACAGCAGAAGCGUUCACGUCGCAGCCCCGGUCAGAUUCUGGUGAAUCUGCGAAUUCUGCUGUAUAUCUC [G6A U41G]	0.18
UAACAAGGGGCCACAGCAGAAGCGUUCACGUCGCAGCCCCUGUCAGAUUCUGGUGAAUCUGCGAACUCUGCUGUAUAUCUC [G6A U66C]	0.29
UAACAAGGGGCCACAGCAGAAGCGUUCACGUCGCAGCCCCUGUCAGAUUCUGGUGAAUCUGCGAAUUCUGCUGUAUACCUC [G6A U78C]	0.24
UAACAAGGGGCCACAGCAGAAGCGUUCACGUCGCAGCCCCUGUCAGAUUCUGGUGAAUCUGCGAAUUCUGCUGUAUAACUC [G6A U78A]	0.11
UAACACGGGGCCACAGCAGAAGCGUACACGUCGCAGCCCCUGUCAGAUUCUGGUGAAUCUGCGAAUUCUGCUGUAUAUCUC [G6C U26A]	0.47
UAACAAGGGGCCACAGCAGAAGCGUUCACGUCGCAGCCCCUGUCAGAUUCUGGUGAAUCUGCGAAUUCUGCUGUAUAUCAC [G6A U80A]	0.53
UAACAAGGGGCCACAGCAGAAGCGUUCACGUCGCAGCCCCUGUCAGAUUCUGGUGAAUCUGCGAAUUCUGCUGUAUAUCCC [G6A U80C]	0.45
UAACAAGGGGCCACAGCAGAAGCGUUCACGUCGCAGCCCCUGUCAGAUUCUGGUGAAUCUGCGAAUCCUGCUGUAUAUCUC [G6A U67C]	0.32
UAACAAGGGGCCACAGCAGAAGCGUUCACGUCGCAGCCCCUGUCAGAUUCUGGUGAAUCUGCGAAUACUGCUGUAUAUCUC [G6A U67A]	0.4
UAACACGGGGCCACAGCAGAUGCGUUCACGUCGCAGCCCCUGUCAGAUUCUGGUGAAUCUGCGAAUUCUGCUGUAUAUCUC [G6C A21U]	0.39
UAACACGGGGCCACAGCAGAGGCGUUCACGUCGCAGCCCCUGUCAGAUUCUGGUGAAUCUGCGAAUUCUGCUGUAUAUCUC [G6C A21G]	0.56
UAACACGGGGCCACAGCAGAAGCGUUCACGUCGCAGCCCCUGUCAGAUUCUGGUGAAUCUGCGAAUUCUGCAGUAUAUCUC [G6C U72A]	0.18
UAACACGGGGCCACAGCAGAAGCGUUCACGUCGCAGCCCCUGUCAGAUUCUGGUGAAACUGCGAAUUCUGCUGUAUAUCUC [G6C U58A]	0.21
UAACAAGGGGCCACAGCAGAAGCGUUCACGUCGCAGCCCCUGUCAGAUACUGGUGAAUCUGCGAAUUCUGCUGUAUAUCUC [G6A U49A]	0.08
UAACAAGGGGCCACAGCAGAAGCGUUCACGUCGCAGCCCCUGUCAGAUCCUGGUGAAUCUGCGAAUUCUGCUGUAUAUCUC [G6A U49C]	0.15
UAACACGGGGCCACAGCAGAAGCGUUCACGUCGCAGCCCCUGUCUGAUUCUGGUGAAUCUGCGAAUUCUGCUGUAUAUCUC [G6C A45U]	0.32
